Laboratory results taken from US5098841A, “Process for the preparation of hydroxy acids” (CIBA-GEIGY Corporation, priority 1988, dated 1992).

Key:
[1] = Specific activity of commercially available dehydrogenases based on pyruvate; format: biochemical; settings: substrate pyruvate
From the text: (§1) The continuous reaction method, especially in an enzyme membrane reactor, is preferred for both processes.
(§2) U--unit of enzyme activity (under defined reaction conditions, 1 U produces a substance conversion of 1 μmol/min)

[2] = Specific activity of commercially available dehydrogenases based on 2-keto-4-phenylbutyric acid; format: biochemical; settings: substrate 2-keto-4-phenylbutyric acid
From the text: as §1, §2

With “L-LDH bovine heart Fluka 61310: commercially available L-lactate dehydrogenase from bovine heart, Fluka 61310” the “U/mg protein based on pyruvate” value [1] was 300 U/mg protein and the “U/mg protein based on 2-keto-4-phenylbutyric acid” value [2] was 0.07 U/mg protein.
